The source of these data is patent US20150104459A1.

Holding throughout (details): remark: other sources report otherwise
In experiment [1] the target is recombinant soluble homotrimeric HA, A/Hong Kong/156/97 (H5N1) (influenza A virus A/Hong Kong/156/97 (H5N1)). Kind of experiment: microarray, trimeric HA, transfection supernatant.
Experiment [2] deals with recombinant soluble homotrimeric HA, A/chicken/Vietnam/NCVD-016/08 (H5N1) (influenza A virus A/chicken/Vietnam/NCVD-016/2008 (H5N1)). Kind of experiment: microarray, trimeric HA, transfection supernatant.
In experiment [3] the target is recombinant homotrimeric HA, A/Wisconsin/67/05 H3N2 (Influenza A virus A/Wisconsin/67/05 (H3N2)). Briefly: trimeric HA microarray; transfection supernatant set 5.
Experiment [4] deals with recombinant homotrimeric HA, A/Egypt/3300-NAMRU3/08 H5N1 (Influenza A virus A/Egypt/3300-NAMRU3/08 (H5N1)). Described as above.
Experiment [5] has as its target recombinant soluble homotrimeric HA of A/California/4/09 (H1N1) (Influenza A virus A/California/04/2009 (H1N1)). Kind of experiment: HA microarray, BCC supernatant.
For experiment [6], the target named is recombinant soluble homotrimeric HA of A/Solomon Islands/3/06 (H1N1) (Influenza A virus A/Solomon Islands/3/2006 (H1N1)). Briefly: HA microarray, BCC supernatant.
The target in experiment [7] is recombinant soluble homotrimeric HA of A/Vietnam/1203/04 (H5N1) (Influenza A virus A/Vietnam/1203/2004 (H5N1)). Kind of experiment: HA microarray, BCC supernatant.
Experiment [8] concerns the target recombinant soluble homotrimeric HA of A/Japan/305/57 (H2N2) (Influenza A virus A/Japan/305/1957 (H2N2)). Kind of experiment: HA microarray, BCC supernatant.
Experiment [9] deals with recombinant soluble homotrimeric HA of A/Wisconsin/67/05 (H3N2) (Influenza A virus A/Wisconsin/67/2005 (H3N2)). Briefly: HA microarray, BCC supernatant.
Experiment [10] addresses recombinant soluble homotrimeric HA of A/duck/Yangzhou/02/2005 (H8N4) (Influenza A virus A/duck/Yangzhou/02/2005 (H8N4)). Briefly: HA microarray, BCC supernatant.
Experiment [11] has as its target recombinant soluble homotrimeric HA of A/Egypt/3300-NAMRU3/08 (H5N1) (Influenza A virus A/Egypt/3300-NAMRU3/2008 (H5N1)). Kind of experiment: HA microarray, BCC supernatant.
In experiment [12] the target is recombinant soluble homotrimeric HA of A/Anhui/1/05 (H5N1) (Influenza A virus A/Anhui/1/2005 (H5N1)). Briefly: HA microarray, BCC supernatant.
The target in experiment [13] is recombinant soluble homotrimeric HA of A/Indonesia/5/05 (H5N1) (Influenza A virus A/Indonesia/5/2005 (H5N1)). Kind of experiment: HA microarray, BCC supernatant.
Experiment [14] addresses recombinant soluble homotrimeric HA, A/Anhui/1/05 (H5N1) (influenza A virus A/Anhui/1/2005 (H5N1)). Kind of experiment: microarray, trimeric HA, transfection supernatant.
The target in experiment [15] is recombinant soluble homotrimeric HA, A/northern shoveler/California/HKWF115/2007 (H6N1) (influenza A virus A/northern shoveler/California/HKWF115/2007 (H6N1)). Kind of experiment: microarray, trimeric HA, transfection supernatant.
For experiment [16], the target named is recombinant homotrimeric HA, A/swine/Ontario/01911-2/99 H4N6 (Influenza A virus A/swine/Ontario/01911-2/99 (H4N6)). Briefly: trimeric HA microarray; transfection supernatant set 5.
The target of experiment [17] is recombinant soluble homotrimeric HA of A/chicken/Vietnam/NCVD-016/08 (H5N1) (Influenza A virus A/chicken/Vietnam/NCVD-016/2008 (H5N1)). Kind of experiment: HA microarray, BCC supernatant.
The target of experiment [18] is recombinant homotrimeric HA, A/Solomon Islands/3/06 H1N1 (Influenza A virus A/Solomon Islands/3/06 (H1N1)). Kind of experiment: trimeric HA microarray; transfection supernatant set 3.
Experiment [19] has as its target recombinant soluble homotrimeric HA of A/northern shoveler/California/HKWF115/2007 (H6N1) (Influenza A virus A/northern shoveler/California/HKWF115/2007 (H6N1)). Briefly: HA microarray, BCC supernatant.
Experiment [20] deals with recombinant soluble homotrimeric HA of A/Netherlands/219/03 (H7N7) (Influenza A virus A/Netherlands/219/03 (H7N7)). Briefly: HA microarray, BCC supernatant.

B1: TCN-551 (5243_D01) (antibody, V domains shown)
VH: EVQLVQSGSEVKKPGESLKISCKGSGYSFSNYWIGWVRHMPGKGLEWMGIIYPGDSDTRYSPSFQGQVTMSADKSSSTVYLQWSSLKASDTAIYYCARRGGHSFGYGSGGDTHSEFDSWGQGTLVTVSS
VL: QSVLTQSPSVSAAPGQKVTISCSGSDSNIGDYFVCWYQHLPGKPPQLLIYENNKRPSGIPDRFSGSKSGTSATLGITGIQTGDEADYYCATWDGSLSAWVFGGGTKLTVL
Turning to B1, the Trimeric HA Binding RLU came to 792 RLU in experiment [1]; 792 RLU in experiment [2]; 53400 RLU in [5]; 53800 RLU in [6]; 4150 RLU in experiment [7]; 22600 RLU in [8]. Moreover, the Trimeric HA Binding RLU was 6840 RLU in [9]; 9820 RLU in experiment [10]; 47200 RLU in [11]; 4190 RLU in [12]; 53500 RLU in experiment [13]. The results for the Trimeric HA Binding: RLU in experiment [3] and in experiment [4] were 936 RLU and 17400 RLU, respectively.

B2: TCN-539 (5056_A08) (antibody, V domains shown)
VH: QVQLVESGGGVVQPGRSLRLSCAASEITFITYAMHWVRQAPGKGLEWVALISDDGSNKFYADSVKGRFTISRDNSKNTLYLQMNSLRAEDTAAYYCAREGVYFDSGTYRGYFDYWGQETLVTVSS
VL: EIVLTQSPATLSLSPGERATLSCRASQSVSSYLAWYQQKPGQAPRLLIYDASNRATGIPARFSGSGSGTDFTLTISSLEPEDFAVYYCQQRSHWPPITFGQGTRLEIK
For the molecule B2, the Trimeric HA Binding RLU came out at 1450 RLU in experiment [1]; 3500 RLU in experiment [2]; 3240 RLU in experiment [14]; 2860 RLU in [15]; 239 RLU in experiment [6]; 545 RLU in experiment [7]. Moreover, the Trimeric HA Binding RLU in [8] was determined as 468 RLU; in [9], 715 RLU; in [11] it was 11400 RLU; in experiment [17] it was 100 RLU. In addition, the figures for the Trimeric HA Binding: RLU in experiment [4] and in experiment [16] were 24300 RLU and 6510 RLU, respectively.

B3: TCN-529 (5297_H01) (antibody, V domains shown)
VH: QITLRESGPTLVKPTQTLTLTCTFSGFSLSTNGVNVGWIRQPPGKALEWLALIYWDDDKRYSPSLKRRLTITKDTSKNQVVLTLTNMDPVDTATYYCAHRPDFYGDFEYWGPGTLVTVSS
VL: QSALTQPASVSGSPGQSITISCTGSSSDIGGYNYVSWYQQHPGKAPKLMIYDVNNRPSGVSNRFSGSKSGNTASLTISGLQTDDEADYYCGSYTGSPHYVFGTGTKVTVL
Regarding B3, the Trimeric HA Binding: RLU in experiment [18] is 43 RLU. The Trimeric HA Binding RLU in [6] amounted to 179 RLU; in [8], 435 RLU; in experiment [9] it was 51600 RLU; in [17], 410 RLU.

B4: TCN-538 (3206_O17) (antibody, V domains shown)
VH: QITLKESGPTLVKPTQTLTLTCVFSGFSLSITGVRVGWIRQPPGKALEWLALISWDDEKHYSPSLQSRLTITKDTSKNQVVLTMTNLDPVDTATYYCARSTDRGHVLRYFGWMLPGDAFDVWGQGTMVTVSS
VL: DIVMTQSPDFLPVSLGERATINCKSSQRVLYSSNNKNYLAWYQLKPGQPPKLIIYWASTRESGVPDRFSGSGSGTEFTLTISSLQAEDVAVYYCQQYYSRPYTFGQGTKLEIK
Regarding B4, the Trimeric HA Binding RLU in [1] was found to be 5170 RLU; in experiment [2], 2950 RLU; in [15] it was 8900 RLU; in [19] it was 17400 RLU; in experiment [5] it was 13800 RLU; in experiment [6], 33200 RLU. Besides, the Trimeric HA Binding RLU in experiment [8] turned out to be 43000 RLU; in experiment [9], 6900 RLU; in experiment [10] it was 6120 RLU; in experiment [11] it was 23600 RLU; in [20] it was 6530 RLU; in experiment [17], 37300 RLU. In experiment [13], the Trimeric HA Binding RLU was determined as 26400 RLU. For the same molecule, in experiment [3], the Trimeric HA Binding: RLU was 2070 RLU.
